molecular target: in vitro translated 35S-labeled Brd4-CTD (human) (UniProt O60885)

Substance	percent of Brd4 bound compared to wild type E2 [%]
GST-tagged HPV16 E2 W92A (from UniProt P03120 1-365)	< 20
GST-tagged HPV16 E2 R37A (from UniProt P03120 1-365)	< 20
GST-tagged HPV16 E2 W134A (from UniProt P03120 1-365)	< 20
GST-tagged HPV16 E2 W33A (from UniProt P03120 1-365)	< 20

molecular target: His-Xpress-SV40NLS-HBrd41047-1362 (human) (UniProt O60885)

Substance	percent of wild type E2 binding [%]
HPV16 E2 K68A (pCMV4-16E2 mutant, expressed in C33A cells) (from UniProt P03120 1-365)	> 40
HPV16 E2 F121A (pCMV4-16E2 mutant, expressed in C33A cells) (from UniProt P03120 1-365)	> 40
HPV16 E2 E90A (pCMV4-16E2 mutant, expressed in C33A cells) (from UniProt P03120 1-365)	> 40
HPV16 E2 W33A (pCMV4-16E2 mutant, expressed in C33A cells) (from UniProt P03120 1-365)	< 10
HPV16 E2 Y178A (pCMV4-16E2 mutant, expressed in C33A cells) (from UniProt P03120 1-365)	> 40
HPV16 E2 R37A (pCMV4-16E2 mutant, expressed in C33A cells) (from UniProt P03120 1-365)	< 10
HPV16 E2 T93A (pCMV4-16E2 mutant, expressed in C33A cells) (from UniProt P03120 1-365)	> 40
HPV16 E2 E39A (pCMV4-16E2 mutant, expressed in C33A cells) (from UniProt P03120 1-365)	> 40
HPV16 E2 L79A (pCMV4-16E2 mutant, expressed in C33A cells) (from UniProt P03120 1-365)	> 40
HPV16 E2 D122A (pCMV4-16E2 mutant, expressed in C33A cells) (from UniProt P03120 1-365)	> 40
HPV16 E2 Y138A (pCMV4-16E2 mutant, expressed in C33A cells) (from UniProt P03120 1-365)	> 40
HPV16 E2 W92A (pCMV4-16E2 mutant, expressed in C33A cells) (from UniProt P03120 1-365)	< 10
